Entries after “also recorded” stand apart in the source; their conditions may differ. Where a SMILES comes first, the peptide text is derived from it. Where no end group is shown, it is not given here. [ ]: non-standard residue; d: D form. ξ: configuration not given here. ξGly(decyl) = CCCCCCCCCCC(N)C(=O)O; 2Adod = 2-amino-dodecanoic acid
Legend:
[1] = biological target: T1, Lck (Homo sapiens, UniProt P06239); experiment: In vitro Lck activation kinase study (Eurofins); assay type: biochemical; details: for Lck activation (in words): peptide 1 μM where stated
T1 construct: purchased Eurofins Pharma Discovery Services UK Limited
T1 sequence (P06239 whole entry): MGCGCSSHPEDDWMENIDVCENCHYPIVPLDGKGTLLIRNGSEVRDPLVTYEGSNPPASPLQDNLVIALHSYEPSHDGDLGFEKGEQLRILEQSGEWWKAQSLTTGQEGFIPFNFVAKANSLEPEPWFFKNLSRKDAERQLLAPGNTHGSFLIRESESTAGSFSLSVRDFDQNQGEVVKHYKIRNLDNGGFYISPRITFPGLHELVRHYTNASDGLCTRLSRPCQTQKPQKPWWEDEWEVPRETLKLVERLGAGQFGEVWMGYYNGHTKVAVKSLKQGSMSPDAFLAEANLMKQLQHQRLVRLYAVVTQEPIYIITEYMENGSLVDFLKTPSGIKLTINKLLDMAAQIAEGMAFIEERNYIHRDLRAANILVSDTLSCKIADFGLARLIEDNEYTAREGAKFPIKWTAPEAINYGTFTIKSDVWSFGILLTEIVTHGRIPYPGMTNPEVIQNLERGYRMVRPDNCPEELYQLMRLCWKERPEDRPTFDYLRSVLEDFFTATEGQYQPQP
Method: The ability of polypeptides of the present invention to activate Lck was examined in vitro. Lck is member of the Src family of tyrosine kinases. […] All results in are percentage Lck activity relative to control (100%).
Test polypeptides were assessed at a concentration of 1.0 μM.
The ability of polypeptides of the present invention to activate Src family kinases was examined in vitro. Kinase activation studies utilising peptides were carried out as described in Example 1, and all kinase activity values are shown as percentage relative to control.
The ability of polypeptides comprising both lysine and arginine to activate Lck in vitro was examined. Lck activation studies utilising peptides were carried out as described in Example 1, and all kinase activity values are shown as percentage relative to control.

[2] = system: wild-type Jurkat cells; experiment: IL-2 secretion in stimulated wild-type Jurkat cells (ELISA); assay type: cell-based, human; details: biotinylated anti-CD3, anti-CD28, avidin; 48 h exposure
Method: In brief, wild-type Jurkat cells (an immortalised line of human T lymphocyte cells) were stimulated by exposure to biotinylated anti-CD3 antibody in the presence of anti-CD28 antibody and avidin. During the culture period (48 hours or 72 hours) cells were exposed to test polypeptides. Cell supernatant was assayed for IL-2 at the end of 48 or 72 hours using a standard commercially available ELISA kit as described above.
In brief, cells were seeded at 1 million cells per well (12 well plate, 2 mL volume) and stimulated with Biotin-CD3, CD28, and avidin (5:5:1.25 μg). The cells were then treated with IK14804, and then incubated for 48 hours at 37° C. The supernatant (100 uL, n=3), was then analyzed for IL-2 content.
In brief, wild-type Jurkat cells (am immortalised line of human T lymphocyte cells) were stimulated by exposure to biotinylated anti-CD3 antibody in the presence of anti-CD28 antibody and avidin. Cells were seeded at 1 million cells per well (12 well plate, 2 mL volume) and stimulated with Biotin-anti-CD3, anti-CD28, and avidin (5:5:1.25 μg). Cells were treated with the test peptides and then incubated for 48 hours at 37° C. The supernatants (100 ul, n=3), were then analysed for IL-2 and IL-12 content. During the culture period (48 hours) cells were exposed to test polypeptide RSKAKNPLYR-(2Adod)4-NH2 (SEQ ID NO: 128). Cell supernatant was assayed for IL-2 and IL-12 at the end of 48 hours using standard commercially available ELISA kit as described above.

[3] = system: Fgr; experiment: Lck Activity above control (1 µM) | Fgr
Method: (§1) Table printed on a drawing sheet, FIG. 2
Head of the field: Lck Activity above control (1 µM) | Fgr
(§2) First copying reader's note: Kinase activity above control for each Src family kinase at 1 µM peptide; the cell for IK00800/Fgr is printed as '%' without a digit.
Where the first naming reader finds the target: head: Lck Activity above control (1 µM) | Fgr

[4] = biological target: T1, Lck; experiment: Lck Activity above control (1 µM) | Lck
Method: as §1
Head of the field: Lck Activity above control (1 µM) | Lck
as §2
Where the first naming reader finds the target: head: Lck Activity above control (1 µM) | Lck

[5] = system: K562 cells; experiment: Specific cytotoxicity of Calcein-AM stained K562 cells in PBMC co-culture; assay type: cell-based; details: PBMC pre-treated 0.08-1.25 μM 48 hrs, 5:1 ratio, 4 hrs; greater than IFN-α 2A; data not shown
Method: In brief, PBMC were incubated for 48 hrs then co-cultured together with Calcein AM stained K562 cells stimulated with or without human recombinant IFN-α 2A (5 ng/mL) for 4 hrs. Supernatants were assessed for Calcein green fluorescence intensity using the GloMax® Discover and percentage specific cytotoxicity was calculated. Data shown indicates mean percentage specific cytotoxicity +/− SEM, n=4. Data were analysed by paired t test in comparison to the vehicle control, *p<0.05.
PBMC were also pre-treated with or without the Lck activating polypeptides RSKAKNPLY-RRRRRRRRR (SEQ ID NO: 24, IK14800), RVKVKVVVV-RRRRRRRRR (SEQ ID NO: 58, IK15800), RSKAKNPLY-RRRRRRRRR-(2Adod)4-NH2 (SEQ ID NO: 65, IK14804) and RVKVKVVVV-RRRRRRRRR-(2Adod)4-NH2 (SEQ ID NO: 66, IK15804) (0.08-1.25 μM) for 48 hrs, then co-cultured with Calcein AM stained K562 cells at a 5:1 ratio and incubated for a further 4 hrs. Supernatants were assessed for Calcein green fluorescence intensity using the GloMax® Discover and percentage specific cytotoxicity was calculated. Data shown indicates mean percentage specific cytotoxicity +/− SEM, n=4. Data were analysed by repeated measures two-way ANOVA with Holm-Sidak's post-test comparing peptide treatment with vehicle control, *p<0.05, **P<0.01, ***P<0.001, ****p<0.0001.

[6] = biological target: T2, Lck(h) (Homo sapiens, UniProt P06239); experiment: Western blot of Lck phosphorylation (4G10 and anti-pY394 antibodies); assay type: biochemical; details: peptide 1 and 10 μM, with ATP, 40 minutes
T2 construct: purchased Eurofins Pharma Discovery Services UK Limited
T2 sequence (P06239 whole entry): as above
Method: Western blot studies were performed by Eurofins Pharma Discovery Services UK Limited (Dundee, United Kingdom). […] Reactions were allowed to proceed for 40 minutes at room temperature before being stopped by the addition of SDS-sample buffer. In each case the Lck enzyme was diluted to yield 20 ng per 25 μl reaction. Appropriate controls in the absence of compound and peptide were also run as well as an untreated sample of both the Lck(h) and Lck(h) activated kinases. The resulting samples were then subjected to SDS-PAGE and western blot analysis using the antibodies 4G10 (anti-phospho-tyrosine antibody) (see FIG. 3) and anti-pY394 Lck (R&D Systems MAB7500) (see FIG. 2). An additional blot using the secondary detection antibody (anti-mouse-HRP) was also performed. The membranes were stained by Ponceau S to verify sample loading and effective protein transfer. The 4G10 antibody is a general anti-phospho-tyrosine antibody and there are several tyrosine residues in Lck but only one auto-phosphorylating tyrosine residue, i.e., at position Y394. […] Samples were as follows (numbers correspond to the lanes on the gel): • 1. Molecular weight markers • 2. Standard Lck • 3. Standard Lck+peptide substrate+ATP (no test peptide) • 4. Standard Lck−peptide substrate+ATP (no test peptide) • 5. Standard Lck+ATP+10Arg peptide (SEQ ID NO: 7, IK00100; 1 μM) (no peptide substrate) • 6. Standard Lck+ATP+10 Arg peptide (SEQ ID NO: 7, IK00100; 10 μM) (no peptide substrate) • 7. Standard Lck+ATP+8 Arg peptide (SEQ ID NO: 4, IK00800; 1 μM) (no peptide substrate) • 8. Standard Lck+ATP+8 Arg peptide (SEQ ID NO: 41K00800; 10 μM) (no peptide substrate) • 9. 10 Arg (SEQ ID NO: 7, IK00100) (10 μM) (test peptide only) • 10. 8 Arg (SEQ ID NO: 4, IK00800) (10 μM) (test peptide only)
The steps of the western blot protocol were as below: • SDS-PAGE gel: 50 minutes at 200V • Western blot transfer: 90 minutes at 25V • Membrane: Nitrocellulose Pre-Cut Blotting Membranes 0.2 μm pore size (LC2000 (Life Tech)) • Ponceau stain: 0.1% Ponceau S (w/v) in 5% acetic acid • The membrane was blocked with 10 mL PBST and 10% BSA for 1 hour before application of primary and secondary antibodies. Primary Antibodies: • 1. Anti-4G10 (Millipore 05-777) 1/1000 in PBST with overnight incubation at 4° C. followed by washing with 4×20 mL PBST. • 2. Anti-pY394 Lck (R&D Systems) 1/2500 in PBST with overnight incubation at 4° C. followed by washing with 4×20 mL PBST. Secondary Antibody:
Anti-mouse-hrp (Sigma A5278) 1/5000 in PBST followed by washing with 4×20 mL PBST for 5 hours on a spiral shaker at room temperature. Detection was performed via SuperSignal ELISA Pico Chemiluminescent Substrate—37070 (Pierce).

With RSKAKNPLY [IK94000] the “Lck activation (in words)” value [1] was “no Lck activation”, the “Lck activation (in words)” value ([1]; listed as IK09400) was “do not activate Lck” and the “IL-2 secretion relative to control” value [2] was “increase IL-2 secretion”.

With “RRRRRRRRRR [IK00100] [listing 1 of 2 here]” the “Lck Activity above control (1 µM) | Fgr” value [3] was 0% and the “Lck Activity above control (1 µM) | Lck” value [4] was 389%.

With KKKKKKKKKK [10Lys] the “Lck Activity above control (1 µM) | Fgr” value [3] was 0%.

“RSKAKNPLYR (RSKAKNPLYR-{2Adod-2Adod-2Adod-2Adod-NH2}) [IK14000]” was tested, and the “Lck activation (in words)” value [1] was “do not activate Lck”, the “Lck activation (in words)” value ([1]; listed as RSKAKNPLYR) was “no Lck activation” and the “IL-2 secretion relative to control” value [2] was “increase IL-2 secretion”.

With `CCCCCCCCCCC(NC(=O)C(CCCCCCCCCC)NC(=O)C(CCCCCCCCCC)NC(=O)C(CCCCCCCCCC)NC(=O)[C@H](CCCNC(=N)N)NC(=O)[C@H](CCCNC(=N)N)NC(=O)[C@H](CCCNC(=N)N)NC(=O)[C@H](CCCNC(=N)N)NC(=O)[C@H](CCCNC(=N)N)NC(=O)[C@H](CCCNC(=N)N)NC(=O)[C@H](CCCNC(=N)N)NC(=O)[C@H](CCCNC(=N)N)NC(=O)[C@H](CCCNC(=N)N)NC(=O)[C@@H](NC(=O)[C@@H](NC(=O)[C@@H](NC(=O)[C@@H](NC(=O)[C@H](CCCCN)NC(=O)[C@@H](NC(=O)[C@H](CCCCN)NC(=O)[C@@H](NC(=O)[C@@H](N)CCCNC(=N)N)C(C)C)C(C)C)C(C)C)C(C)C)C(C)C)C(C)C)C(N)=O` (stereo partly shown) [IK15804, RVKVKVVVVR-RRRRRRRR-(2Adod)4-NH2] (H-RVKVKVVVVRRRRRRRRR[ξGly(decyl)][ξGly(decyl)][ξGly(decyl)][ξGly(decyl)]-NH2) the “percentage of specific cytotoxicity” value [5] was “increased the percentage of specific cytotoxicity”.

“RVKVKVVVVRRRRRRRRR-NH2 [IK15800, RVKVKVVVV-RRRRRRRRR]” was tested, and the “percentage of specific cytotoxicity” value [5] was “increased the percentage of specific cytotoxicity”.

With “RRRRRRRR [IK00800] [listing 1 of 2 here]” the “Lck Activity above control (1 µM) | Lck” value [4] was 126%.

“RRRRRRRRRR [IK00100] [listing 2 of 2 here]” was tested, and the “phosphorylation at Y394 of Lck (anti-pY394 antibody)” value (shortened to “phosphorylation at Y394 of Lck”) ([6]; listed as 10 Arg) was “significant increase in the level of phosphorylation”, the “level of phosphorylation on Lck (anti-phospho tyrosine 4G10 antibody)” value ([6]; listed as 10Arg) was “significant increase in the level of phosphorylation; also recorded: increased with increasing concentrations” and the “phosphorylation at Y394 of Lck” value ([6]; listed as 10Arg) was “Increased auto-phosphorylation was associated with increasing concentration”.

In the case of “RVKVKVVVV-RRRRRRRRR (RVKVKVVVVRRRRRRRRR) [IK15800]”, the “Lck Activity above control (1 µM) | Fgr” value [3] is reported as 0% and the “Lck Activity above control (1 µM) | Lck” value [4] is reported as 593%.

For “rskaknplyrrrrrrrrr ([dR][dS][dK][dA][dK][dN][dP][dL][dY][dR][dR][dR][dR][dR][dR][dR][dR][dR]) [IKD14800]”, the “Lck Activity above control (1 µM) | Fgr” value [3] was 0%.

In the case of HHHHHHHHHH [10His], the “Lck Activity above control (1 µM) | Fgr” value [3] is reported as 0% and the “Lck Activity above control (1 µM) | Lck” value [4] is reported as 0%.

With “RSKAKNPLY-RRRRRRRRR-NH2 (RSKAKNPLYRRRRRRRRR-NH2) [IK14800]” the “Lck Activity above control (1 µM) | Fgr” value [3] was 0% and the “Lck Activity above control (1 µM) | Lck” value [4] was 578%.

For `CCCCCCCCCCC(NC(=O)C(CCCCCCCCCC)NC(=O)C(CCCCCCCCCC)NC(=O)C(CCCCCCCCCC)NC(=O)[C@H](CCCNC(=N)N)NC(=O)[C@H](CCCNC(=N)N)NC(=O)[C@H](CCCNC(=N)N)NC(=O)[C@H](CCCNC(=N)N)NC(=O)[C@H](CCCNC(=N)N)NC(=O)[C@H](CCCNC(=N)N)NC(=O)[C@H](CCCNC(=N)N)NC(=O)[C@H](CCCNC(=N)N)NC(=O)[C@H](CCCNC(=N)N)NC(=O)[C@H](Cc1ccc(O)cc1)NC(=O)[C@H](CC(C)C)NC(=O)[C@@H]1CCCN1C(=O)[C@H](CC(N)=O)NC(=O)[C@H](CCCCN)NC(=O)[C@H](C)NC(=O)[C@H](CCCCN)NC(=O)[C@H](CO)NC(=O)[C@@H](N)CCCNC(=N)N)C(N)=O` (stereo partly shown) [IK14804, RSKAKNPLYR-RRRRRRRR-(2Adod)4-NH2] (H-RSKAKNPLYRRRRRRRRR[ξGly(decyl)][ξGly(decyl)][ξGly(decyl)][ξGly(decyl)]-NH2), the “percentage of specific cytotoxicity” value [5] was “increased the percentage of specific cytotoxicity”.

For “RSKAKNPLYRRRRRRRRR-NH2 [IK14800, RSKAKNPLY-RRRRRRRRR-NH2]”, the “percentage of specific cytotoxicity” value [5] was “increased the percentage of specific cytotoxicity” and the Lck activation ([1]; peptide 1 μM, relative to control) was 496%.

With “RRRRRRRR [IK00800] [listing 2 of 2 here]” the “phosphorylation at Y394 of Lck” value ([6]; listed as 8 Arg) was “significant increase in the level of phosphorylation”, the “level of phosphorylation on Lck (anti-phospho tyrosine 4G10 antibody)” value ([6]; listed as 8Arg) was “significant increase in the level of phosphorylation; also recorded: increased with increasing concentrations” and the “phosphorylation at Y394 of Lck” value ([6]; listed as 8Arg) was “Increased auto-phosphorylation was associated with increasing concentration”.

— patent publication US12134663B2, “Cationic peptides for activating Lck” (Interk Peptide Therapeutics Limited, priority 2018, dated 2024)
